In patent US20040191815:

Columns and labels:
MafG homodimer [1] = molecular target: MafG homodimer (UniProt O15525); assay: SPR; details: pH 7.9; for Kd: 20 mM Hepes, 200 mM NaCl, 4 mM MgCl2, 1 mM EDTA, BSA
MafG homodimer [2] = molecular target: MafG homodimer (UniProt O15525); assay: EMSA; details: gel mobility shift assay comparison, probe details not given
[3] = 5' thiol on anchor strand (immobilized)

Chain of MafG homodimer (O15525 whole entry): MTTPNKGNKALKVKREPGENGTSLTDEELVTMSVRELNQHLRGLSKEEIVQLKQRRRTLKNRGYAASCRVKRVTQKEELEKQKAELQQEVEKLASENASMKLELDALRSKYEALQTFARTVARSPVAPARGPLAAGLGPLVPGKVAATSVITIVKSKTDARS

Row | Sequence | Kd (MafG homodimer [1]; [3]) | Kd (MafG homodimer [2]; [3]) | Ka (MafG homodimer [1]; 5' thiol on anchor strand (immobilized), 10 mM Hepes, 300 mM NaCl, 4 mM Mg, 1 mM EDTA, ka 2.22e5 M-1s-1, kd 8.80e-4 s-1, Example 1 sequence printed only in figure) | Kd (MafG homodimer [1]; 5' thiol on anchor strand (immobilized), SPR imaging) | Kd (MafG homodimer [1]; 5' thiol on anchor strand (immobilized) [variable site 22-34 (TGCTGATTCAGCC), 5' thiol linker at 1 left out], listing SEQ 7 has 14 nt, Table 2 prints 13 nt) | Kd (MafG homodimer [2]; 5' thiol on anchor strand (immobilized) [variable site 22-34 (TGCTGATTCAGCC), 5' thiol linker at 1 left out])
1 | TTTTTTTTTTTTTTTCGGAATAGTTGACTCAGCATTACTC (double strand) [hNQO1m] | 8.58 nM | 273 nM |  |  |  | 
2 | TTTTTTTTTTTTTTTCGGAATTGCTGACTCAGCATTACTC (double strand) [MARE 25] |  | 249 nM | 2.52e+08 M⁻¹ | 2.5 nM |  | 
3 | TTTTTTTTTTTTTTTCGGAATTGCTGATTCAGCCTTACTC (double strand) [hOPSIN] |  |  |  |  | 7.67 nM | 252 nM
